From patent publication US20240287172A1 (SCIRHOM, published 2024)
Substitutions are numbered along the chain they refer to.

B1: antibody 5 (antibody, V domains shown)
VH: QVTLKESGPGILQPSQTLSLTCSFSGFSLSTFGMGVGWIRQPSGKGLEWLAHIWWDDEKYYNSALKSRLTISKATSKNQAFLKIANVDTADTATYYCARISNYGSNYWYFNVWGTGTTVTVSS
VL: QVVLTQSPALMSASPGEKVTMTCSAGSSVSCMYWYQQKPGSSPRVLIYDTSNLASGVPARFTGSGSGTSYSLTISRMEAEDAASYYCQQWNSYPLTFGAGTKLELK
notes: mouse IgG, kappa light chain; also called clone #5; purified antibody 5
B2: antibody 34 (antibody, V domains shown)
VH: QVTLKESGPGILQPSQTLSLTCSFSGFSLSTFSLGVGWIRQSSGKGLEWLAHIWWDDEKYYNPALKSRLTISKDTSKNQVFLKIANVDAADTATYYCARAYYSKSYYALDYWGQGTSVTVSS
VL: DIQMTQSPSSLSASLGERVSLTCRASQEISGYLSWLQQKPDGTIKRLIYAASTLDSGVPKRFSGSRSGSDYSLAISSLESEDFADYYCLQYANFPFTFGSGTKLEIK
notes: mouse IgG, kappa light chain; also called clone #34; purified antibody 34
B3: antibody 48 (antibody, V domains shown)
VH: QVQLQQSGTELVRPGTSVKVSCKASGYAFTNYLIEWVKQRPGQGLEWIGVINPGSGFTKYNEKFKGKATLTADKSSSTVYMHLSSLTSEDSAVYFCARGLYRAMDYWGQGTSVTVSS
VL: DIQMTQSPASQSASLGESVTITCLASQTIATWLAWYQQKPGKSPQLLIYGATTLADGVPSRFSGGGSGTKFSFKISSLQAEDFVSYYCQQLYSTPYTFGGGTKLEIK
notes: mouse IgG, kappa light chain; also called clone #48; purified antibody 48
B4: antibody 50 (antibody, V domains shown)
VH: B3 VH with T9A, T16A, T30S, V79A, H82Q
VL: B3 VL with A30G, G50A, T52A, T53S, S85N, L91I
notes: mouse IgG, kappa light chain; also called clone #50; purified antibody 50

Tests used:
[1] = target: T1, hiR2-FL-S537E-T7 (human, UniProt Q6PJF5 1-856); test: FACS on MEF-DKO cells
T1 sequence: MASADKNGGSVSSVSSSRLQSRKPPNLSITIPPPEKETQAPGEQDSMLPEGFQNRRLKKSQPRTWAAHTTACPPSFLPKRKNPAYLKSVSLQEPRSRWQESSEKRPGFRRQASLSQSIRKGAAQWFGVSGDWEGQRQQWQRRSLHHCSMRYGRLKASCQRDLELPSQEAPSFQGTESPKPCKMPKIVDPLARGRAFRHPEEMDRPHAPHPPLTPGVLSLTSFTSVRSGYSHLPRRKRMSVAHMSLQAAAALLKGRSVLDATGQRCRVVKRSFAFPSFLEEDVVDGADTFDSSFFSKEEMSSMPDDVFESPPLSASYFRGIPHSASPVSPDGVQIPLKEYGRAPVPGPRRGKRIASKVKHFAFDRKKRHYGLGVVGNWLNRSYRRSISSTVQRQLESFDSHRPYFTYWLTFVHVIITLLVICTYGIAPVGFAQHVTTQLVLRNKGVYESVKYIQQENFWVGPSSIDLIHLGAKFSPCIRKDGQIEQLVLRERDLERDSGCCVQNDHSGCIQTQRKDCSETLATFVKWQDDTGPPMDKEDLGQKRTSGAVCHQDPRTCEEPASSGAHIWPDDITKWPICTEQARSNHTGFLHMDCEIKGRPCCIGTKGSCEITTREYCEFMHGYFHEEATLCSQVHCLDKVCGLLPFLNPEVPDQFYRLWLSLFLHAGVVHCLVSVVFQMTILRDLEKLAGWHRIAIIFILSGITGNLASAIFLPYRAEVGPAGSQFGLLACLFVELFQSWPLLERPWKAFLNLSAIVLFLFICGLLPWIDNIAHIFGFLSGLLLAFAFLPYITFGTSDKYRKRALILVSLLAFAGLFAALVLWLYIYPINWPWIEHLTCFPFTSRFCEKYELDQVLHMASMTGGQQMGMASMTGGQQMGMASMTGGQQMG

[2] = target: T2, hiR2-FL-I483V-T7 (human, UniProt Q6PJF5 1-856); test: FACS, MEF-DKO cells, 3 µg/ml
T2 sequence: T1 sequence with I483V, E537S
Description: In brief, immortalized MEF-DKO-hiR2-FL-A431S-T7, MEF-DKO-hiR2-FL-V434E-T7, MEF-DKO-hiR2-FL-T436V-T7, MEF-DKO-hiR2-FL-Q437D-T7, MEF-DKO-hiR2-FL-L438S-T7, MEF-DKO-hiR2-FL-S448N-T7, MEF-DKO-hiR2-FL-I452V-T7, MEF-DKO-hiR2-FL-I464E-T7, MEF-DKO-hiR2-FL-D465A-T7, MEF-DKO-hiR2-FL-I477M-T7, MEF-DKO-hiR2-FL-K479Q-T7, MEF-DKO-hiR2-FL-G481P-T7, MEF-DKO-hiR2-FL-I483V-T7, MEF-DKO-hiR2-FL-E484H-T7, MEF-DKO-hiR2-FL-Q485S-T7, MEF-DKO-hiR2-FL-L486F-T7, MEF-DKO-hiR2-FL-V487I-T7, MEF-DKO-hiR2-FL-R489S-T7, MEF-DKO-hiR2-FL-E490A-T7, MEF-DKO-hiR2-FL-D492E-T7, MEF-DKO-hiR2-FL-L493R-T7, MEF-DKO-hiR2-FL-R495K-T7 and MEF-DKO-hiR2-FL-D496H-T7 cells were harvested with 10 mM EDTA in PBS, washed and resuspended in FACS buffer (PBS, 3% FBS, 0.05% sodium azide), and seeded in Nunc U-bottom 96-well plates (Thermo Fisher Scientific, USA) at approximately 1×10⁵ cells per well. To pellet cells and remove supernatants, the plates were centrifuged at 1,500 rpm and 4° C. for 3 minutes. For primary staining, cells were resuspended in 100 μl per well of either FACS buffer alone (controls) or the purified antibodies 3, 5, 16, 22, 34, 42, 43, 44, 48, and 50 of the invention at 3 μg/ml in FACS buffer and incubated on ice for 1 hour. Afterwards, plates were centrifuged at 1,500 rpm and 4° C. for 3 minutes and washed twice with 200 μl per well of FACS buffer. For secondary staining, cells were spun down and resuspended in 100 μl per well of PE-conjugated goat anti-mouse IgG F(ab′)2 detection fragment (Dianova, Germany) diluted 1:100 in FACS buffer. Protected from light, the cell suspensions were incubated on ice for 1 hour. Plates were then centrifuged at 1,500 rpm and 4° C. for 3 minutes and washed three times with 200 μl per well of FACS buffer. Finally, cells were resuspended in 150 μl per well of FACS buffer and analyzed using a BD Accuri™ C6 Plus flow cytometer (Becton Dickinson, Germany).

Row | Binder | binding result [1] | loss of binding vs wild type [2] [%]
1 | B1 | no binding (tested: 3 µg/ml) | 
2 | B2 | no binding (tested: 3 µg/ml) | 
3 | B3 |  | ≥ 30
4 | B4 |  | ≥ 30
